T1: PAN (Methanocaldococcus jannaschii, UniProt Q58576)
T1 construct: recombinant from pRSETA, homohexamer
T1 sequence (Q58576 1-430): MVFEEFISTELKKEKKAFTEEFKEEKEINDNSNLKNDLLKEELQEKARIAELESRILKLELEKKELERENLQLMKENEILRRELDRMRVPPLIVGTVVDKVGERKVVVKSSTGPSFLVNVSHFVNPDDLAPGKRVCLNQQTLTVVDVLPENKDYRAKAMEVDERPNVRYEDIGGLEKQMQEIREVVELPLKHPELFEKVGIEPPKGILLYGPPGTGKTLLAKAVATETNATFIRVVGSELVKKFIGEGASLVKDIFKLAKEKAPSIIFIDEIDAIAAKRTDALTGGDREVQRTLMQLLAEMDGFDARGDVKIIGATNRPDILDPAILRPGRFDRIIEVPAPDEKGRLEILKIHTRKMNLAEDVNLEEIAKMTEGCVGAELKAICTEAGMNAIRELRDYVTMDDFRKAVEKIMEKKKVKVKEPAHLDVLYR


Columns and labels:
PAN = target: T1, PAN; assay: NADH-coupled ATPase assay, Hill equation; assay type: biochemical; settings: 50 mM Tris-HCl pH 7.5, 5 mM MgCl2; 100 nM PAN
From the text: NADH-coupled ATPase assay, Hill equation on PAN | Vmax, KM and Hill coefficient (h) values were obtained by nonlinear regression analysis

archaeal 20S proteasome = archaeal 20S proteasome (UniProt P25156)
[1] = target: the molecule itself; assay: native gel or EMSA; native gel of the PAN mutants; conditions not given

Chain of archaeal 20S proteasome (P25156 whole entry, chain 1 of 2): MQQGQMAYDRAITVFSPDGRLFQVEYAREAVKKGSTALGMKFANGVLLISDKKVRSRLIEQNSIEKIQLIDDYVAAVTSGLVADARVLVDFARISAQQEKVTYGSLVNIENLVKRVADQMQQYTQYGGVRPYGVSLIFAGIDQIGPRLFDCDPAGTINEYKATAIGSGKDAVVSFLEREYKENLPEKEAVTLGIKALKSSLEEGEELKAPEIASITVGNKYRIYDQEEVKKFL
Chain of archaeal 20S proteasome (chain, as listed by the source, chain 2 of 2): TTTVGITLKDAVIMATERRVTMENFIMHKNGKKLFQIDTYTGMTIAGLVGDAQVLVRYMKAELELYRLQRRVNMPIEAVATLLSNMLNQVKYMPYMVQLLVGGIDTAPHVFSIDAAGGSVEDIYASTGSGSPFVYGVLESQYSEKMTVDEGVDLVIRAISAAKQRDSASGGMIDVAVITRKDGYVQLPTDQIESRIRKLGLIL

Molecule	stoichiometry N [1]	other results
Nc1ncnc2c1ncn2[C@@H]1O[C@H](COP(=O)(O)OP(=O)(O)OP(=O)(O)O)[C@@H](O)[C@H]1O [ATP]		Km (PAN): 261 ± 8 µM
PAN wild type (enzyme) MVFEEFISTELKKEKKAFTEEFKEEKEINDNSNLKNDLLKEELQEKARIAELESRILKLELEKKELERENLQLMKENEILRRELDRMRVPPLIVGTVVDKVGERKVVVKSSTGPSFLVNVSHFVNPDDLAPGKRVCLNQQTLTVVDVLPENKDYRAKAMEVDERPNVRYEDIGGLEKQMQEIREVVELPLKHPELFEKVGIEPPKGILLYGPPGTGKTLLAKAVATETNATFIRVVGSELVKKFIGEGASLVKDIFKLAKEKAPSIIFIDEIDAIAAKRTDALTGGDREVQRTLMQLLAEMDGFDARGDVKIIGATNRPDILDPAILRPGRFDRIIEVPAPDEKGRLEILKIHTRKMNLAEDVNLEEIAKMTEGCVGAELKAICTEAGMNAIRELRDYVTMDDFRKAVEKIMEKKKVKVKEPAHLDVLYR		LFP peptide hydrolysis by the 20S (20 nM) with PAN (80 nM) and 10 μM ATPγS (gate opening) (archaeal 20S proteasome): 9 fold
PAN-R328A (enzyme, UniProt Q58576 1-430, looked up, PAN, archaeal proteasomal ATPase; Vector pRSETA; source: expression vector in pRSETA made by site-directed mutagenesis) MVFEEFISTELKKEKKAFTEEFKEEKEINDNSNLKNDLLKEELQEKARIAELESRILKLELEKKELERENLQLMKENEILRRELDRMRVPPLIVGTVVDKVGERKVVVKSSTGPSFLVNVSHFVNPDDLAPGKRVCLNQQTLTVVDVLPENKDYRAKAMEVDERPNVRYEDIGGLEKQMQEIREVVELPLKHPELFEKVGIEPPKGILLYGPPGTGKTLLAKAVATETNATFIRVVGSELVKKFIGEGASLVKDIFKLAKEKAPSIIFIDEIDAIAAKRTDALTGGDREVQRTLMQLLAEMDGFDARGDVKIIGATNRPDILDPAILAPGRFDRIIEVPAPDEKGRLEILKIHTRKMNLAEDVNLEEIAKMTEGCVGAELKAICTEAGMNAIRELRDYVTMDDFRKAVEKIMEKKKVKVKEPAHLDVLYR	6	
PAN-R331A (enzyme, UniProt Q58576 1-430, looked up, PAN, archaeal proteasomal ATPase; Vector pRSETA; source: expression vector in pRSETA made by site-directed mutagenesis) MVFEEFISTELKKEKKAFTEEFKEEKEINDNSNLKNDLLKEELQEKARIAELESRILKLELEKKELERENLQLMKENEILRRELDRMRVPPLIVGTVVDKVGERKVVVKSSTGPSFLVNVSHFVNPDDLAPGKRVCLNQQTLTVVDVLPENKDYRAKAMEVDERPNVRYEDIGGLEKQMQEIREVVELPLKHPELFEKVGIEPPKGILLYGPPGTGKTLLAKAVATETNATFIRVVGSELVKKFIGEGASLVKDIFKLAKEKAPSIIFIDEIDAIAAKRTDALTGGDREVQRTLMQLLAEMDGFDARGDVKIIGATNRPDILDPAILRPGAFDRIIEVPAPDEKGRLEILKIHTRKMNLAEDVNLEEIAKMTEGCVGAELKAICTEAGMNAIRELRDYVTMDDFRKAVEKIMEKKKVKVKEPAHLDVLYR	6	
PAN-R328/331A (enzyme, UniProt Q58576 1-430, looked up, PAN, archaeal proteasomal ATPase; Vector pRSETA; also called double mutant; double-arginine mutant; source: expression vector in pRSETA made by site-directed mutagenesis) MVFEEFISTELKKEKKAFTEEFKEEKEINDNSNLKNDLLKEELQEKARIAELESRILKLELEKKELERENLQLMKENEILRRELDRMRVPPLIVGTVVDKVGERKVVVKSSTGPSFLVNVSHFVNPDDLAPGKRVCLNQQTLTVVDVLPENKDYRAKAMEVDERPNVRYEDIGGLEKQMQEIREVVELPLKHPELFEKVGIEPPKGILLYGPPGTGKTLLAKAVATETNATFIRVVGSELVKKFIGEGASLVKDIFKLAKEKAPSIIFIDEIDAIAAKRTDALTGGDREVQRTLMQLLAEMDGFDARGDVKIIGATNRPDILDPAILAPGAFDRIIEVPAPDEKGRLEILKIHTRKMNLAEDVNLEEIAKMTEGCVGAELKAICTEAGMNAIRELRDYVTMDDFRKAVEKIMEKKKVKVKEPAHLDVLYR	6	

Source: PMC4608255, “ATP binding to neighbouring subunits and intersubunit allosteric coupling underlie proteasomal ATPase function” (Nature Communications, 2015)
